The experiment has as its target chimeric protein PMEC1-His6 (dengue 2 virus, strain 1409, genotype …). In words: dot blot, 10 μg protein spotted, antibody 10 μg/ml.

B1: monoclonal antibody 4G2 (antibody, V domains shown)
VH: EVQLQQSGPELVKPGTSVKISCKTSGYTFTEYTIHWVKQSHGKSLAWIGGIDPNSGGTNYSPNFKGKATLTVDKSSSTAYMDLRSLSSEDSAVYFCARIYHYDGYFDVWGAGTAVTVSS
VL: NIVMTQSPKSMSMSVGERVTLTCKASENVVTYVSWYQQKPEQSPKLLIYGASNRYTGVPDRFTGSGSATDFTLTISSVQAEDLADYHCGQGYSYPYTFGGGTKLEIK
notes: also called AcM 4G2; Mab 4G2
Regarding B1, the binding result is recorded as “binds”.
